{
  "source": "patent US20170015737A1",
  "about": "(published 2017)",
  "binders": {"B1": {"name": "6C1 (antibody, V domains shown)", "VH": "EVQLVESGGGLVQPGGSLKLSCAASGFTFSNYYMSWVRQTPEKRLEWVAYISIDGNNIYHPDSVKGRFTISRDNAKNTLYLQMSSLKSEDTAMYYCARDSDYGYFDVWGTGTTVTVSS", "VL": "DVLMTQTPLSLPVSLGDQASISCRSSQSIVHSNGNTYLEWYLQKRGQSPKLLIYKVSKRFSGVPDRFSGSGSGTDFILKISRVEAEDLGVYYCFQGSHVPLTFGGGTKLELK"}},
  "key": {"[1]": {"target": "T1, pH4.0-treated TTR (human, UniProt P02766 21-147)", "experiment": "sandwich ELISA on pH4-TTR (the table prints 14.6 for 6C1)"}, "[2]": {"target": "T1, pH4.0-treated TTR", "experiment": "ELISA, pH4-TTR captured on anti-His coated plate"}, "[3]": {"target": "recombinant human TTR F87M/L110M (human, UniProt P02766 21-147)", "experiment": "SPR, mAb captured on anti-mouse IgG chip, TTR F87M/L110M as analyte"}, "[4]": {"target": "T1, pH4.0-treated TTR", "experiment": "sandwich ELISA (pH4-TTR)"}},
  "data": [
    {"binder": "B1", "values": [
      {"measurement": "Kd", "setting": "[1]", "result": 14.5, "unit": "nM"},
      {"measurement": "Kd", "setting": "[2]", "result": 16, "unit": "nM"},
      {"measurement": "Kd", "setting": "[3]", "result": 9.01, "unit": "nM"},
      {"measurement": "koff", "setting": "[3]", "result": 0.000415, "unit": "s⁻¹"},
      {"measurement": "kon", "setting": "[3]", "result": 46100, "unit": "M⁻¹ s⁻¹"},
      {"measurement": "Kd", "setting": "[4]", "result": 14.6, "unit": "nM"}
    ]}
  ]
}
